Test results from the supplement of paper PMC10567573.

B1: MFF (parent)
chain: YTEGISQRMRVPEKLKVAPPNADL

Variants of: B1
Assay: protein stability index of a GFP-peptide fusion (GPS, HEK-293T) (PSI 1-6); higher = more stable
Settings: c terminus: a fixed tail appended
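Further: lentivirally expressed fusions sorted by FACS into six bins by GFP to DsRed ratio, PSI derived from sequencing read proportions per bin multiplied by bin number.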

First: YTEGISNRMRVPEKLKVAPPNADL [Q7N]
Second: YTEGISCRMRVPEKLKVAPPNADL [Q7C]
The protein stability index of the first is lower: 2.74 for the first, 2.9 for the second.

Compared with YTEGISYRMRVPEKLKVAPPNADL [Q7Y], YTEGISERMRVPEKLKVAPPNADL [Q7E] is higher in protein stability index: 1.75 for the first, 3.26 for the second.

Going from YTEGISARMRVPEKLKVAPPNADL [Q7A] to YTEGISVRMRVPEKLKVAPPNADL [Q7V], the protein stability index rises from 2.97 to 3.21.

Going from YTEGISSRMRVPEKLKVAPPNADL [Q7S] to YTEGISLRMRVPEKLKVAPPNADL [Q7L], the protein stability index rises from 2.45 to 2.77.

Going from YTEGISPRMRVPEKLKVAPPNADL [Q7P] to YTEGISIRMRVPEKLKVAPPNADL [Q7I], the protein stability index falls from 3.4 to 2.85.

First: YTEGISWRMRVPEKLKVAPPNADL [Q7W]
Second: YTEGISFRMRVPEKLKVAPPNADL [Q7F]
The protein stability index of the first is higher: 2.21 for the first, 1.82 for the second.

Compared with YTEGISKRMRVPEKLKVAPPNADL [Q7K], YTEGISTRMRVPEKLKVAPPNADL [Q7T] is higher in protein stability index: 2.39 for the first, 2.71 for the second.

Going from YTEGISDRMRVPEKLKVAPPNADL [Q7D] to YTEGISGRMRVPEKLKVAPPNADL [Q7G], the protein stability index falls from 3.43 to 2.65.

First: YTEGISRRMRVPEKLKVAPPNADL [Q7R]
Second: YTEGISMRMRVPEKLKVAPPNADL [Q7M]
The protein stability index of the first is higher: 2.81 for the first, 2.59 for the second.

Compared with YTEGISHRMRVPEKLKVAPPNADL [Q7H], YTEGISQRGRVPEKLKVAPPNADL [M9G] is higher in protein stability index: 1.81 for the first, 2.89 for the second.

Going from YTEGISQRIRVPEKLKVAPPNADL [M9I] to YTEGISQRQRVPEKLKVAPPNADL [M9Q], the protein stability index rises from 2.2 to 2.79.

Compared with YTEGISQRVRVPEKLKVAPPNADL [M9V], YTEGISQRHRVPEKLKVAPPNADL [M9H] is higher in protein stability index: 2.35 for the first, 3.17 for the second.

First: YTEGISQRRRVPEKLKVAPPNADL [M9R]
Second: YTEGISQRYRVPEKLKVAPPNADL [M9Y]
The protein stability index of the first is lower: 2.54 for the first, 2.57 for the second.

First: YTEGISQRWRVPEKLKVAPPNADL [M9W]
Second: YTEGISQRCRVPEKLKVAPPNADL [M9C]
The protein stability index of the first is lower: 2.01 for the first, 2.49 for the second.

Going from YTEGISQRFRVPEKLKVAPPNADL [M9F] to YTEGISQRLRVPEKLKVAPPNADL [M9L], the protein stability index rises from 3.02 to 3.22.

Going from YTEGISQRTRVPEKLKVAPPNADL [M9T] to YTEGISQRERVPEKLKVAPPNADL [M9E], the protein stability index rises from 2.74 to 2.89.

Compared with YTEGISQRARVPEKLKVAPPNADL [M9A], YTEGISQRPRVPEKLKVAPPNADL [M9P] is higher in protein stability index: 2.41 for the first, 3.27 for the second.

Compared with YTEGISQRNRVPEKLKVAPPNADL [M9N], YTEGISQRDRVPEKLKVAPPNADL [M9D] is higher in protein stability index: 2.96 for the first, 3.57 for the second.

Going from YTEGISQRSRVPEKLKVAPPNADL [M9S] to YTEGISQRKRVPEKLKVAPPNADL [M9K], the protein stability index rises from 2.55 to 3.37.

First: YTEGISQRMRWPEKLKVAPPNADL [V11W]
Second: YTEGISQRMRHPEKLKVAPPNADL [V11H]
The protein stability index of the first is lower: 2.18 for the first, 2.96 for the second.

First: YTEGISQRMRCPEKLKVAPPNADL [V11C]
Second: YTEGISQRMRKPEKLKVAPPNADL [V11K]
The protein stability index of the first is higher: 2.8 for the first, 2.76 for the second.

Going from YTEGISQRMRAPEKLKVAPPNADL [V11A] to YTEGISQRMRGPEKLKVAPPNADL [V11G], the protein stability index rises from 2.89 to 2.9.

Compared with YTEGISQRMRFPEKLKVAPPNADL [V11F], YTEGISQRMRIPEKLKVAPPNADL [V11I] is higher in protein stability index: 2.7 for the first, 2.96 for the second.

Compared with YTEGISQRMRTPEKLKVAPPNADL [V11T], YTEGISQRMRQPEKLKVAPPNADL [V11Q] is lower in protein stability index: 3.24 for the first, 2.62 for the second.

Going from YTEGISQRMRSPEKLKVAPPNADL [V11S] to YTEGISQRMRPPEKLKVAPPNADL [V11P], the protein stability index falls from 3.29 to 2.78.

Compared with YTEGISQRMRLPEKLKVAPPNADL [V11L], YTEGISQRMRDPEKLKVAPPNADL [V11D] is higher in protein stability index: 2.59 for the first, 2.75 for the second.

Going from YTEGISQRMRRPEKLKVAPPNADL [V11R] to YTEGISQRMRMPEKLKVAPPNADL [V11M], the protein stability index rises from 2.48 to 3.11.

First: YTEGISQRMRNPEKLKVAPPNADL [V11N]
Second: YTEGISQRMREPEKLKVAPPNADL [V11E]
The protein stability index of the first is higher: 2.91 for the first, 2.84 for the second.

Going from YTEGISQVMRVPEKLKVAPPNADL [R8V] to YTEGISQMMRVPEKLKVAPPNADL [R8M], the protein stability index falls from 2.6 to 2.16.

Going from YTEGISQLMRVPEKLKVAPPNADL [R8L] to YTEGISQGMRVPEKLKVAPPNADL [R8G], the protein stability index rises from 2.2 to 2.47.

Compared with YTEGISQQMRVPEKLKVAPPNADL [R8Q], YTEGISQHMRVPEKLKVAPPNADL [R8H] is lower in protein stability index: 2.79 for the first, 2.28 for the second.

First: YTEGISQSMRVPEKLKVAPPNADL [R8S]
Second: YTEGISQNMRVPEKLKVAPPNADL [R8N]
The protein stability index of the first is lower: 2.43 for the first, 3.18 for the second.

Going from YTEGISQWMRVPEKLKVAPPNADL [R8W] to YTEGISQTMRVPEKLKVAPPNADL [R8T], the protein stability index rises from 2.3 to 2.76.

Going from YTEGISQCMRVPEKLKVAPPNADL [R8C] to YTEGISQIMRVPEKLKVAPPNADL [R8I], the protein stability index falls from 2.47 to 1.57.

Going from YTEGISQAMRVPEKLKVAPPNADL [R8A] to YTEGISQEMRVPEKLKVAPPNADL [R8E], the protein stability index rises from 2.82 to 3.6.

First: YTEGISQDMRVPEKLKVAPPNADL [R8D]
Second: YTEGISQYMRVPEKLKVAPPNADL [R8Y]
The protein stability index of the first is higher: 3.76 for the first, 1.75 for the second.

Compared with YTEGISQPMRVPEKLKVAPPNADL [R8P], YTEGISQKMRVPEKLKVAPPNADL [R8K] is lower in protein stability index: 2.81 for the first, 2.52 for the second.

Compared with YTEGISQFMRVPEKLKVAPPNADL [R8F], YTEGISQRMWVPEKLKVAPPNADL [R10W] is higher in protein stability index: 1.95 for the first, 3.33 for the second.

Going from YTEGISQRMPVPEKLKVAPPNADL [R10P] to YTEGISQRMLVPEKLKVAPPNADL [R10L], the protein stability index falls from 3.44 to 3.06.

Going from YTEGISQRMAVPEKLKVAPPNADL [R10A] to YTEGISQRMIVPEKLKVAPPNADL [R10I], the protein stability index rises from 2.17 to 2.97.

Going from YTEGISQRMCVPEKLKVAPPNADL [R10C] to YTEGISQRMFVPEKLKVAPPNADL [R10F], the protein stability index falls from 2.74 to 1.44.

Compared with YTEGISQRMDVPEKLKVAPPNADL [R10D], YTEGISQRMSVPEKLKVAPPNADL [R10S] is higher in protein stability index: 2.71 for the first, 2.72 for the second.

First: YTEGISQRMQVPEKLKVAPPNADL [R10Q]
Second: YTEGISQRMKVPEKLKVAPPNADL [R10K]
The protein stability index of the first is lower: 3.11 for the first, 3.16 for the second.

Going from YTEGISQRMTVPEKLKVAPPNADL [R10T] to YTEGISQRMMVPEKLKVAPPNADL [R10M], the protein stability index falls from 2.6 to 2.48.

First: YTEGISQRMYVPEKLKVAPPNADL [R10Y]
Second: YTEGISQRMEVPEKLKVAPPNADL [R10E]
The protein stability index of the first is lower: 2.08 for the first, 2.83 for the second.

Compared with YTEGISQRMHVPEKLKVAPPNADL [R10H], YTEGISQRMVVPEKLKVAPPNADL [R10V] is lower in protein stability index: 2.52 for the first, 2.49 for the second.

Going from YTEGISQRMNVPEKLKVAPPNADL [R10N] to YTEGISQRMGVPEKLKVAPPNADL [R10G], the protein stability index rises from 2.59 to 2.83.
